# Measured values reported in patent US6989362.
# System: phospho-Thr75 DARPP-32
substance,measurement,value
purified catalytic subunit of cAMP-dependent protein kinase (PKA),phosphorylation of Thr34 DARPP-32 by PKA in vitro,The ability of PKA to phosphorylate Thr34 DARPP-32 in vitro was virtually abolished by prior phosphorylation at Thr75
